Laboratory results published in US20230088269A1 (ARGENX BVBA, published 2023).
Residue numbers refer to the chain shown, from its start. In names and notes the source's numbering stands. One block for each binder: values may come before it.

Legend:
[1] = biological target: T1, recombinant human IL-22R (R&D Systems / Biotechne 2770-LR) (human, UniProt Q8N6P7 16-228); experiment: SPR (Biacore), purified Fab
T1 construct: Bought soluble recombinant protein (said to be 25 kDa); also called hIL22R; IL-22R1
T1 sequence: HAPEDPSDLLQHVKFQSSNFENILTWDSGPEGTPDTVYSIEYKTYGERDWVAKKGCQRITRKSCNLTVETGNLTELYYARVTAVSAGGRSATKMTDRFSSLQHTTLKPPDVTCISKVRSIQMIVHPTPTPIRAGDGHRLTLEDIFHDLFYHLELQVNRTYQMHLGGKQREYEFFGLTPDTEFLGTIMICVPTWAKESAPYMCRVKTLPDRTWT

[2] = biological target: T2, recombinant mouse IL22R (monomeric, R&D Systems cat 4248-MR) (mouse, UniProt Q80XZ4 16-230); experiment: SPR (Biacore), purified Fab
T2 construct: extracellular domain; also called murine IL-22R; mIL22R
T2 sequence (looked up): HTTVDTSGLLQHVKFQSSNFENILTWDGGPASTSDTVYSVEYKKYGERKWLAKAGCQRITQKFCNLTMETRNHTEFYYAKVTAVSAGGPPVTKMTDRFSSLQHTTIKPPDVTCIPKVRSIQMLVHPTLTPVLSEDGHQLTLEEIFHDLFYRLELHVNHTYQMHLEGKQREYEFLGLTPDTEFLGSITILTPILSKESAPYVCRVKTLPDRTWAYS

[3] = biological target: T3, rhIL22R-Fc (rhesus IL22R ECD fused to human Fc) (rhesus monkey, UniProt G7MHN4 16-228); experiment: off-rate of Fab fragment; method not stated
T3 construct: also called rhesus IL-22R1
T3 sequence: T1 sequence with S18N, L73H, S99N, T105A, S115P, K167E, A194S, E196K, K205R

[4] = biological target: T1, recombinant human IL-22R (R&D Systems / …); experiment: off-rate of Fab fragment; method not stated; Fab fragment; human IL-22R1
[5] = biological target: T4, human IL-22R A209D mutant on BW cells (human, UniProt Q8N6P7 16-574); experiment: FACS, BW-hIL-22R mutant cells
T4 sequence: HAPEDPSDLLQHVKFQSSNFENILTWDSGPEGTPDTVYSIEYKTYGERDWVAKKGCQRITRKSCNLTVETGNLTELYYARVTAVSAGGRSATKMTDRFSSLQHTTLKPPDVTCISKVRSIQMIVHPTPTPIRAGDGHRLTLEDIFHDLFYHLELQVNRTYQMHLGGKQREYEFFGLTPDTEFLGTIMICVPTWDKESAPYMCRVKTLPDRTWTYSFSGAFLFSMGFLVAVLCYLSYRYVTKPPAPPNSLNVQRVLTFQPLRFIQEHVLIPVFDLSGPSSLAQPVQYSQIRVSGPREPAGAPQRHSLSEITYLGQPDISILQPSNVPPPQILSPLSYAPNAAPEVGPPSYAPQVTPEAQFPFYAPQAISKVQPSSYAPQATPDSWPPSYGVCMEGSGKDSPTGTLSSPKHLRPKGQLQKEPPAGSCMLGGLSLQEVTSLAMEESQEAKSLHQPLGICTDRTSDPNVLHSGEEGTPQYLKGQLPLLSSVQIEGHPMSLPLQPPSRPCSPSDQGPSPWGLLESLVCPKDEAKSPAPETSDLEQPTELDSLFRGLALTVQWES
Method: The binding of IL22R antibodies and of the benchmark antibody (280.346.TSY) to BW cells over-expressing various IL22R mutants was tested. The IL22R mutants have mutations of amino acids known to be involved in the IL-22/IL22R interaction. In this setup, the antibodies were biotinylated, added to the cells and binding of the antibody to IL22R was detected with labeled streptavidin by Flow cytometry (FACS).
FACS analysis was also carried out as described in Example 8.2 to study the binding of the germlined antibodies to various IL-22R mutants.

[6] = biological target: T1, recombinant human IL-22R (R&D Systems / …); experiment: SPR (Biacore), hIL22R on CM5 chip, mAb injected, 1:1 Langmuir
Method: (§1) The affinity of the 230C9 and 223G5 antibodies was measured using SPR ([…]). In brief, 250RU of human IL22R (Biotechne, 2770-LR) was coated onto a CM5 chip using standard methods (EDC coupling of IL22R at a concentration of 2 μg/ml in acetate buffer pH4.5). Then various concentrations of antibody were injected in HBSEP+ buffer (pH 7.4) for 2 minutes. The binding was monitored also during a 10 min washing (HBSEP+).

[7] = biological target: T1, recombinant human IL-22R (R&D Systems / …); experiment: SPR (Biacore), hIL22R on CM5 chip, mAb injected; rounded range told of 223G5 and 224C4
Method: as §1

[8] = biological target: T5, human IL-22R expressed on cells (BW-hIL22R, Baf3-hIL22R/IL20Rb, transfected HEK, primary human skin cells) (human, UniProt Q8N6P7 16-574); experiment: cell-based or functional assay
T5 sequence: T4 sequence with D194A

[9] = biological target: T5, human IL-22R expressed on cells …; experiment: cell-based or functional assay; remark: listed apart in the source
[10] = biological target: T2, recombinant mouse IL22R (monomeric, R&D …); experiment: summary table of cross-reactivity, mAb, column m = mouse
[11] = biological target: T5, human IL-22R expressed on cells …; experiment: cell-based or functional assay; remark: listed apart in the source
[12] = biological target: T6, cynomolgus monkey IL-22R in ex vivo skin biopsies (cynomolgus monkey, UniProt A0A2K5TKX9 16-573); experiment: cell-based or functional assay
T6 sequence: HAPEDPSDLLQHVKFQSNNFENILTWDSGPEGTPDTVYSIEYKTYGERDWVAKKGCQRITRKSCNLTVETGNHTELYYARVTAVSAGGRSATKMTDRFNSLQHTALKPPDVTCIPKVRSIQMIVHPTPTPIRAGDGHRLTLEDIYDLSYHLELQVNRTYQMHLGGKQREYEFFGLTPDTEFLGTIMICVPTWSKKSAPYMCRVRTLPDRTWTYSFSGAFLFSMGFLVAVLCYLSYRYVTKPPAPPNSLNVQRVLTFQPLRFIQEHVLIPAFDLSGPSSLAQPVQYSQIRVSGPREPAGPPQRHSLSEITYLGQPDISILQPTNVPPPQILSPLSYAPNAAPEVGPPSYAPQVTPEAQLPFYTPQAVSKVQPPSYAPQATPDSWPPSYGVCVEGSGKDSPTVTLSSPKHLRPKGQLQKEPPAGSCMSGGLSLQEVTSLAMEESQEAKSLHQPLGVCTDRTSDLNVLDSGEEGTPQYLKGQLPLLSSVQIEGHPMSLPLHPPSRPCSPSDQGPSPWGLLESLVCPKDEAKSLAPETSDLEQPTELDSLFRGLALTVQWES

[13] = biological target: T5, human IL-22R expressed on cells …; experiment: cell-based or functional assay; remark: listed apart in the source
[14] = biological target: cynoIL22R_ECD-humanTM_humanICD chimera on transfected cells (cynomolgus monkey; human, UniProt Q8N6P7 229-574); experiment: cell-based or functional assay
[15] = biological target: rhesus IL22R ECD - human TM - human ICD chimera on transfected HEK cells (rhesus monkey; human, UniProt Q8N6P7 229-574); experiment: cell-based or functional assay
[16] = biological target: T5, human IL-22R expressed on cells …; experiment: cell-based or functional assay; remark: listed apart in the source
[17] = biological target: T1, recombinant human IL-22R (R&D Systems / …); experiment: SPR (Biacore), mAb on chip, monomeric hIL22R injected, 1:1 Langmuir
Method: Because of the potential avidity effect observed when a bivalent molecule is used as a ligand during affinity measurement, a reverse experimental setup was tested. In this set-up, the antibodies were coated to 250RU using standard methods. Monomeric human IL22R was added at different concentrations, and the affinities calculated using the BIAevaluation software using a Langmuir 1:1 fitting are shown in Table 21 below.

koff [1]: 0.00088 s⁻¹
binding result [2]: no binding
koff [3]: 0.0222 s⁻¹
koff [4]: 0.00122 s⁻¹
B1: 166G8 Fab (Fab, V domains shown)
VH: QVQLVESGGGLVQPGDSLRLSCAASGFTFGSYFMSWVRQAPGKGPEWVSGIHISGGITYYLDSVKGRFTISRDNAKNTLYLQMNNLKPEDTAVYYCVTPPGPFKAHYNGMKYWGKGTLVTVSS
VL: NFMLTQPPSVSGTLGKTVTISCTGTSRDIGDYNYVSWYQQLPGLAPKLLIYKVNTRSSGTPDRFSGSKSGNTASLTISGLQSEDEADYYCASYRLYADYVFGGGTHLTVL
notes: VH family 5; purified llama Fab

binding result [5]: no binding
Kd [6]: 0.016 nM
koff [6]: 0.0001 s⁻¹
kon [6]: 6.6e+06 M⁻¹ s⁻¹
Kd [7]: 0.01 to 0.02 nM
B2: 223G5 mAb (antibody, human IgG1, lambda, N297Q, V domains shown)
VH: B1 VH with D16G, G30S, L61T, N85S, K87R, P88A, M110A
VL: QSALTQPPSVSGSPGQSVTISCTGTSSDIGSYNYVSWYQQLPGKAPKLLIYEVNKRSSGVPDRFSGSKSGNTASLTISGLQAEDEADYYCASYRLYADYVFGGGTQLTVLG
notes: Germlined variant of 166G8; also called 223G5-N297Q

IC50 blocking IL-22 (pM), BW hIL22R proliferation [8]: 360 pM
IC50 blocking IL-22 (nM), BWhIL22R cell line [9]: 0.28 nM
Relative potency to 280.346.TSY (IL-22, BWhIL22R cell line) [9]: 2.5 fold
binding result [10]: no binding
B3: 218A7 mAb (antibody, V domains shown)
VH: QVQLVESGGGLVQPGGSLRLSCAASGFTFSSYDMSWVRQAPGKGLEWVSSIYNDGSNTAYSDSVKGRFTISRDNAKNTLYLQMNSLKSEDTAVYYCAKVGFSGTYYSESWGQGTQVTVSS
VL: LPVLTQPSAVSVSLGQTARITCQGGYYAHWYQQKPGQAPVLVIYGQNNRPSGIPERFSGSGAGNTATLTISGAQAEDEAEYYCQSGSSSANAVFGGGTKLTVL
notes: VH family 4; light chain shuffled variant of 157A2, not germlined

EC50, inhibition of CCL2 levels in primary human keratinocytes stimulated with IL-4, IL-13, IL-22 and IFN-gamma [11]: 0.1 nM
EC50, reduction of rhIL-22 induced DEFB4 mRNA in human ex vivo skin explants [11]: 4 nM
EC50, block of rhIL-22 down-regulation of FLG2 and LOR mRNA in cynomolgus skin biopsies [12]: 11 nM
IC50 blocking IL-22 (nM), BWhIL22R cell line [9]: 0.56 nM
Relative potency to 280.346.TSY (IL-22, BWhIL22R cell line) [9]: 1.2 fold
IC50 blocking IL-20 (nM), Baf3hIL22R/IL20Rb cell line; batch #1 [13]: 0.781 nM
IC50 blocking IL-20 (nM), Baf3hIL22R/IL20Rb cell line; batch #2 [13]: 0.567 nM
Relative potency to 280.346.TSY (IL-20); batch #1 [13]: 1.9 fold
Relative potency to 280.346.TSY (IL-20); batch #2 [13]: 2.6 fold
EC50 (nM), STAT3-reporter in HEK cells after human IL22, Cyno ECD [14]: 0.57 nM
EC50 (nM), STAT3-reporter in HEK cells after human IL22, Rhesus ECD [15]: 0.48 nM
EC50 (nM), STAT3-reporter in HEK cells after human IL22, Human ECD [16]: 0.28 nM
Kd [6]: 0.13 nM
koff [6]: 8.9e-05 s⁻¹
kon [6]: 680000 M⁻¹ s⁻¹
Kd [17]: 0.22 nM
koff [17]: 0.00022 s⁻¹
kon [17]: 920000 M⁻¹ s⁻¹
B4: 230C9 mAb (antibody, human IgG1, lambda, N297Q, V domains shown)
VH: B3 VH with S35N, G55A, A75S, K87R, S88A, Q115L
VL: SYELTQPSSVSVALGQTARITCQGGYYAHWYQQKPGQAPVLVIYGQNNRPSGIPERFSGSGAGNTATLTISRAQAEDEADYYCQSGSSSSNAVFGGGTKLTVLG
notes: Germlined variant of 218A7; also called 230C9-N297Q; 230C9 N297Q
